This note sets out measurements from US20140349310A1.

The test concerns the target human c-Met on the surface of human tumor cells (human) (UniProt P08581). In words: FACS on tumor cells (cell line not named on the sheet), PE-labelled isotype control, FL2 Log; unstained cells 3.48.

Sequence of human c-Met on the surface of human tumor cells (human) (P08581 25-1390): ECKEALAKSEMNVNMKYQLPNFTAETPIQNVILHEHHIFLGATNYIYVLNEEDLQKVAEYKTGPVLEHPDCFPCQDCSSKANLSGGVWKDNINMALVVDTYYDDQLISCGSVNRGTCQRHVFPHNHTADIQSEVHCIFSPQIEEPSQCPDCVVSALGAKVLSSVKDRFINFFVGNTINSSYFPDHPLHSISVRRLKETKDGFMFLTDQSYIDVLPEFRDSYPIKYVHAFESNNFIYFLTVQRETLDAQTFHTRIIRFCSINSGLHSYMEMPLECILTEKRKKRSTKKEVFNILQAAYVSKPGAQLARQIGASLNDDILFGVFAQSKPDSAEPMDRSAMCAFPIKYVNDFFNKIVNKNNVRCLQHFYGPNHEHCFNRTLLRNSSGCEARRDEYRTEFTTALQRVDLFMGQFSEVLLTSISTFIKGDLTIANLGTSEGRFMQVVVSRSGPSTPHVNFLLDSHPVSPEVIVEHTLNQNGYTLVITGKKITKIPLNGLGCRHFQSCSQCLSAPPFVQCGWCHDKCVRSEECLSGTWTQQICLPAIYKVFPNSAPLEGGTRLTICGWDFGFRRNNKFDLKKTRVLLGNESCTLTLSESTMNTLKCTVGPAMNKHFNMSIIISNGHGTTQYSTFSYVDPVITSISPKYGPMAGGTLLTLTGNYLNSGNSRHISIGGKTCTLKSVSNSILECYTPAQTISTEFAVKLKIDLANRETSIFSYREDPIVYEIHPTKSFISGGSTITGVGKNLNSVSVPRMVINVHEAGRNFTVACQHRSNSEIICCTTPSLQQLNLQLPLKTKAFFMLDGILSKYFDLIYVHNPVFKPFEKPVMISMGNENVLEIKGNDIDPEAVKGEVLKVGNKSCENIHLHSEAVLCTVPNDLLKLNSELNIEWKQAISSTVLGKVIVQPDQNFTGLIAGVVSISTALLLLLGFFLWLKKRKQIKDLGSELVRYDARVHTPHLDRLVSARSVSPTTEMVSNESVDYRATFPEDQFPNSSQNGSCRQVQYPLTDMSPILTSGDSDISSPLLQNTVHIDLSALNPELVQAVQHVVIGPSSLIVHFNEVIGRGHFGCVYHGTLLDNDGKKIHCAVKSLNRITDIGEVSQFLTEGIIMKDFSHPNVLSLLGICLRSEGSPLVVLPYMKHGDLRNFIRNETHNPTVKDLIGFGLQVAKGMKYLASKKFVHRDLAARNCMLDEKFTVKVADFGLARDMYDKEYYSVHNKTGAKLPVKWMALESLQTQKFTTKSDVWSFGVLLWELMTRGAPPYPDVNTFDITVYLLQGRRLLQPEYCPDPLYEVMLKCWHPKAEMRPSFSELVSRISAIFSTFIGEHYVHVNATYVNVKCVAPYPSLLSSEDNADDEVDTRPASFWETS

Turning to mIgG1-PE (antibody), the Mean fluorescence was found to be 6.47.
